The values below come from publication PMC10591911 (Cell reports, 2023).

The chains are these.
B2: recombinant 6His-3FLAG-Cdc14 (enzyme, S. cerevisiae, UniProt Q00684 1-551, looked up)
chain: MRRSVYLDNTIEFLRGRVYLGAYDYTPEDTDELVFFTVEDAIFYNSFHLDFGPMNIGHLYRFAVIFHEILNDPENANKAVVFYSSASTRQRANAACMLCCYMILVQAWTPHQVLQPLAQVDPPFMPFRDAGYSNADFEITIQDVVYGVWRAKEKGLIDLHSFNLESYEKYEHVEFGDFNVLTPDFIAFASPQEDHPKGYLATKSSHLNQPFKSVLNFFANNNVQLVVRLNSHLYNKKHFEDIGIQHLDLIFEDGTCPDLSIVKNFVGAAETIIKRGGKIAVHCKAGLGRTGCLIGAHLIYTYGFTANECIGFLRFIRPGMVVGPQQHWLYLHQNDFREWKYTTRISLKPSEAIGGLYPLISLEEYRLQKKKLKDDKRVAQNNIEGELRDLTMTPPSNGHGALSARNSSQPSTANNGSNSFKSSAVPQTSPGQPRKGQNGSNTIEDINNNRNPTSHANRKVVIESNNSDDESMQDTNGTSNHYPKVSRKKNDISSASSSRMEDNEPSATNINNAADDTILRQLLPKNRRVTSGRRTTSAAGGIRKISGSIKK

The target in assay [1] is Rim4-FLAG (S. cerevisiae) (UniProt P38741). The assay is described as follows: mass photometry.
Assay [2] concerns the target recombinant Bmh1-EGFP-His6 (S. cerevisiae) (UniProt P29311). The assay is described as follows: pull-down.
Assay [3] deals with recombinant Bmh1/2-EGFP-His6 (S. cerevisiae) (UniProt P29311). The assay is described as follows: pull-down.
Assay [4] has as its target recombinant Bmh2-EGFP-His6 (S. cerevisiae) (UniProt P34730). The assay is described as follows: pull-down.
In assay [5] the target is B2. As to the kind of experiment: pull-down.
The target of assay [6] is T1, recombinant Rim4(PxLm)-His6 (S. cerevisiae, UniProt P38741 1-713, P454E455L456 to A454E455G456).
T1 sequence (looked up): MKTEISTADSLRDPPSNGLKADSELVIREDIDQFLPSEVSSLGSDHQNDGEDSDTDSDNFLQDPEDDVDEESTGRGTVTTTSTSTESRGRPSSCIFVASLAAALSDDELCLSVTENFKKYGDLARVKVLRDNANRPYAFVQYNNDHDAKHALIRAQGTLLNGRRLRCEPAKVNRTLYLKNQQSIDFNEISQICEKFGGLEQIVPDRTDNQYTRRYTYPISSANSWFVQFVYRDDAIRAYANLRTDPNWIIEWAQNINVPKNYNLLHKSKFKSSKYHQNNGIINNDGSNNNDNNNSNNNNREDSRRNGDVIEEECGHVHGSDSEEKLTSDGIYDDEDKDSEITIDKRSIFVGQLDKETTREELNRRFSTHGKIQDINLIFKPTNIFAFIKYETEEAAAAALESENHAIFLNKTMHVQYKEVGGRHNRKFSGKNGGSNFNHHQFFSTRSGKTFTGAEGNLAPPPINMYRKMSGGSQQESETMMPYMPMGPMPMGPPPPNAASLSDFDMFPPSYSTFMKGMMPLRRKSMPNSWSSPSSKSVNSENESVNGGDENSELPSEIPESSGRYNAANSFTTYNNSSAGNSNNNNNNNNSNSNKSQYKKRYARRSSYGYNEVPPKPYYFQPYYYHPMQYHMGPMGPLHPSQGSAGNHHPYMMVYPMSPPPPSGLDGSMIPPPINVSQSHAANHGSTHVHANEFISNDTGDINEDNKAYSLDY
As to the kind of experiment: pull-down.

The next assay addresses T2, Bmh1 (S. cerevisiae (endogenous in W303 …, UniProt P29311 1-267)).
T2 sequence (looked up): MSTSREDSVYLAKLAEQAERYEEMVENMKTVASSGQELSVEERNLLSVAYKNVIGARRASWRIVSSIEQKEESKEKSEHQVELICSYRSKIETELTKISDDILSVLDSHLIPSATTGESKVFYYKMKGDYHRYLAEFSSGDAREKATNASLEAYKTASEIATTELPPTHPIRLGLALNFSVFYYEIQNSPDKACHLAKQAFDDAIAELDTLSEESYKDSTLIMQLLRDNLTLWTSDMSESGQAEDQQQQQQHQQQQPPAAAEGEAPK
The assay is described as follows: mass photometry.

“Bmh1 (from UniProt P29311 1-267) (natural protein)” showed a stoichiometry N in assay [1] of 1.

The molecule “Bmh2 (from UniProt P34730 1-273) (natural protein)” yielded a stoichiometry N in assay [1] of 1.

With “PKA-treated Rim4-His6 (Rim4-BBS-p) (from UniProt P38741 1-713) (natural protein)”, the mole ratio in the pull-down, printed 2.5:1 in assay [2], in assay [3] and in assay [4] was 2.5 throughout.

B1: recombinant Rim4(ΔC289)-His6 (domain or fragment, S. cerevisiae, UniProt P38741 1-424, looked up)
chain: MKTEISTADSLRDPPSNGLKADSELVIREDIDQFLPSEVSSLGSDHQNDGEDSDTDSDNFLQDPEDDVDEESTGRGTVTTTSTSTESRGRPSSCIFVASLAAALSDDELCLSVTENFKKYGDLARVKVLRDNANRPYAFVQYNNDHDAKHALIRAQGTLLNGRRLRCEPAKVNRTLYLKNQQSIDFNEISQICEKFGGLEQIVPDRTDNQYTRRYTYPISSANSWFVQFVYRDDAIRAYANLRTDPNWIIEWAQNINVPKNYNLLHKSKFKSSKYHQNNGIINNDGSNNNDNNNSNNNNREDSRRNGDVIEEECGHVHGSDSEEKLTSDGIYDDEDKDSEITIDKRSIFVGQLDKETTREELNRRFSTHGKIQDINLIFKPTNIFAFIKYETEEAAAAALESENHAIFLNKTMHVQYKEVGGRH
Regarding B1, in assay [5], the binding result was “binds”. As to B2, in assay [6], the binding result is reported as “binds”.

B3: Bmh2 (natural protein, UniProt P34730 1-273, looked up)
chain: MSQTREDSVYLAKLAEQAERYEEMVENMKAVASSGQELSVEERNLLSVAYKNVIGARRASWRIVSSIEQKEESKEKSEHQVELIRSYRSKIETELTKISDDILSVLDSHLIPSATTGESKVFYYKMKGDYHRYLAEFSSGDAREKATNSSLEAYKTASEIATTELPPTHPIRLGLALNFSVFYYEIQNSPDKACHLAKQAFDDAIAELDTLSEESYKDSTLIMQLLRDNLTLWTSDISESGQEDQQQQQQQQQQQQQQQQQAPAEQTQGEPTK
Consider B3, for which, in the assay with Bmh1, the “stoichiometry N” value was determined as 1.

As a reminder, the stoichiometry N is a count of units in the complex or per binding partner.
